The values that follow are results of earlier work, collected in article PMC10876879, “Sustained silencing peanut allergy by xanthopurpurin is associated with suppression of peripheral and bone marrow IgE-producing B cell” (Frontiers in Immunology, 2024).

This series relates to IgE. On the set-up: method as in PMID 15025403, PMID 12637608. The conditions noted are these: double-blind, randomized trial, 2003.

B1: TNX-901: anti-IgE antibody (antibody, chains of the INN, looked up, V domains shown)
VH: QVQLVQSGAEVKKPGASVKVSCKASGYTFSMYWLEWVRQAPGHGLEWVGEISPGTFTTNYNEKFKARATFTADTSTNTAYMELSSLRSEDTAVYYCARFSHFSGSNYDYFDYWGQGTLVTVSS
VL: DILLTQSPGTLSLSPGERATLSCRASQSIGTNIHWYQQKPGQAPRLLIKYASESISGIPSRFSGSGSGTDFTLTISRLEPEDFAMYYCQQSDSWPTTFGQGTKVEIK
As for B1, the “Threshold of the sensitivity of patients to peanut” value was “significantly increased”.
